Laboratory results published in publication PMC6470172, “Conformational plasticity in the KcsA potassium channel pore helix revealed by homo-FRET studies” (Scientific Reports, 2019).

B1: KcsA W26,68,87,113F quadruple mutant channel (W67 KcsA) (natural protein, S. lividans, UniProt P0A334 1-160, looked up)
chain: MPPMLSGLLARLVKLLLGRHGSALHFRAAGAATVLLVIVLLAGSYLAVLAERGAPGAQLITYPRALWFSVETATTVGYGDLYPVTLFGRLVAVVVMVAGITSFGLVTAALATFFVGREQERRGHFVRHSEKAAEEAYTRTTRALHERFDRLERMLDDNRR
notes: KcsA potassium channel cloned from S. lividans; single Trp (W67) left per subunit; called full-length in the discussion; Homotetramer; also called KcsA W67
B2: KcsA W26,68,87,113F E71A mutant channel (W67 E71A KcsA) (natural protein, S. lividans, UniProt P0A334 1-160, looked up)
chain: MPPMLSGLLARLVKLLLGRHGSALHFRAAGAATVLLVIVLLAGSYLAVLAERGAPGAQLITYPRALWFSVATATTVGYGDLYPVTLFGRLVAVVVMVAGITSFGLVTAALATFFVGREQERRGHFVRHSEKAAEEAYTRTTRALHERFDRLERMLDDNRR
notes: KcsA potassium channel cloned from S. lividans; also called E71A W67 KcsA; E71A W67

Legend:
[1] = target: the molecule itself; assay: SDS-PAGE of the tetramer; 13.5% SDS-PAGE of the detergent-solubilised protein; 20 mM Hepes pH 7 or 10 mM succinic acid pH 4, 5 mM DDM, 200 mM Cs+, Rb+, K+ or Na+, or TBA+
[2] = target: the molecule itself; assay: FRET or BRET; homo-FRET between the W67 residues of the subunits, read by steady-state and time-resolved fluorescence anisotropy; 6 uM protein (monomer based), 5 mM DDM, pH 7 or pH 4, saturating monovalent cations or TBA+, room temperature

Protein | stoichiometry N [1] | binding result [2]
B1 | 4 | 
B2 |  | binds
